Experiments:
Biotin-Tn(DT*R)-100 = assay: SPR, Biacore T100, Biotin-Tn(DT*R)-100 on sensor chip SA
[1] = molecular target: biotin-labeled T-47D culture supernatant (MUC1) (human) (UniProt P15941); assay: SPR, Biacore, biotin-labeled T-47D culture supernatant on sensor chip SA
Sequence of biotin-labeled T-47D culture supernatant (MUC1) (human) (P15941 24-1097 limits assumed): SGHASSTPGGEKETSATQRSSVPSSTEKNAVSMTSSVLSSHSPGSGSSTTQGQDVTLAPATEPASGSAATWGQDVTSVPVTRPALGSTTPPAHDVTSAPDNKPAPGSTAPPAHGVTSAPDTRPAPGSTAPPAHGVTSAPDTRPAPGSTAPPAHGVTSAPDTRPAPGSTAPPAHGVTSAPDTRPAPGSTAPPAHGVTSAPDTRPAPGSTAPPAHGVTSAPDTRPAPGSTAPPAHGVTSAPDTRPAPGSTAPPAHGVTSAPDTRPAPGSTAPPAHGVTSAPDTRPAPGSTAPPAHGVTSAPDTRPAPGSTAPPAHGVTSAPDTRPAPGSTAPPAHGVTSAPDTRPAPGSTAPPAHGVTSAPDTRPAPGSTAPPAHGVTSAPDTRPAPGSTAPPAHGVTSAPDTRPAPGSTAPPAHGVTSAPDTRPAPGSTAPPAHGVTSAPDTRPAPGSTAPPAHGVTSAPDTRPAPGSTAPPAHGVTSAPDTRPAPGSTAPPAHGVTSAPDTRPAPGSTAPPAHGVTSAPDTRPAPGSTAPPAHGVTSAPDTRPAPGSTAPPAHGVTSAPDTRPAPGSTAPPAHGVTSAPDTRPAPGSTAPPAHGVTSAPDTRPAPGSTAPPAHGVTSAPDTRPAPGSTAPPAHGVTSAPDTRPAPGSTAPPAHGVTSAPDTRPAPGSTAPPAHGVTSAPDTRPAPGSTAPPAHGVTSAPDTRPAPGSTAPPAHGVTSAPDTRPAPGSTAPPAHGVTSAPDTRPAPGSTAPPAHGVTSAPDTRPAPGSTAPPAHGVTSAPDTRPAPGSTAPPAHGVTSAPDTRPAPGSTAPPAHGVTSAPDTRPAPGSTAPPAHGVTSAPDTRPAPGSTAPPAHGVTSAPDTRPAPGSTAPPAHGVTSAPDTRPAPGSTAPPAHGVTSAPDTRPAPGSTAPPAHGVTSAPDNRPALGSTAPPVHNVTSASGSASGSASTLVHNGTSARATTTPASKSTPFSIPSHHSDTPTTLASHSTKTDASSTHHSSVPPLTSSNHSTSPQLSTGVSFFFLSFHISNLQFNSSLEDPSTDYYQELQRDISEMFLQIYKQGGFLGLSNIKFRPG

T100 sequence (peptide, as listed by the source limits assumed): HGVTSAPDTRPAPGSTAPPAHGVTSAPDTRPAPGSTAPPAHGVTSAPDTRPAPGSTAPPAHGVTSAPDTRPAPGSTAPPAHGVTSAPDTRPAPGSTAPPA

Row | Substance | Kd (Biotin-Tn(DT*R)-100) | koff (Biotin-Tn(DT*R)-100) | kon (Biotin-Tn(DT*R)-100) | Kd [1] | koff [1] | kon [1]
1 | C595 (antibody) | 720 nM | 0.012 s⁻¹ | 16000 M⁻¹ s⁻¹ | 580 nM | 0.026 s⁻¹ | 44000 M⁻¹ s⁻¹
2 | VU-2G7 (antibody) | 180 nM | 0.064 s⁻¹ | 360000 M⁻¹ s⁻¹ | 180 nM | 0.099 s⁻¹ | 550000 M⁻¹ s⁻¹
3 | VU-3C6 (antibody) | 840 nM | 0.051 s⁻¹ | 61000 M⁻¹ s⁻¹ | 150 nM | 0.015 s⁻¹ | 110000 M⁻¹ s⁻¹

From patent US20120040375A1
